This is an account of results in patent US20200360469A1 (UNIVERSITY OF THE SCIENCES, published 2020).

The target of the assay is full-length (FL) BRAF^G469A, 6x-HIS/BRAF^G469A/FLAG (human, UniProt P15056 2-766). The assay can be described thus: cell-based or functional assay.
Chain of full-length (FL) BRAF^G469A, 6x-HIS/BRAF^G469A/FLAG (P15056 2-766 G469A): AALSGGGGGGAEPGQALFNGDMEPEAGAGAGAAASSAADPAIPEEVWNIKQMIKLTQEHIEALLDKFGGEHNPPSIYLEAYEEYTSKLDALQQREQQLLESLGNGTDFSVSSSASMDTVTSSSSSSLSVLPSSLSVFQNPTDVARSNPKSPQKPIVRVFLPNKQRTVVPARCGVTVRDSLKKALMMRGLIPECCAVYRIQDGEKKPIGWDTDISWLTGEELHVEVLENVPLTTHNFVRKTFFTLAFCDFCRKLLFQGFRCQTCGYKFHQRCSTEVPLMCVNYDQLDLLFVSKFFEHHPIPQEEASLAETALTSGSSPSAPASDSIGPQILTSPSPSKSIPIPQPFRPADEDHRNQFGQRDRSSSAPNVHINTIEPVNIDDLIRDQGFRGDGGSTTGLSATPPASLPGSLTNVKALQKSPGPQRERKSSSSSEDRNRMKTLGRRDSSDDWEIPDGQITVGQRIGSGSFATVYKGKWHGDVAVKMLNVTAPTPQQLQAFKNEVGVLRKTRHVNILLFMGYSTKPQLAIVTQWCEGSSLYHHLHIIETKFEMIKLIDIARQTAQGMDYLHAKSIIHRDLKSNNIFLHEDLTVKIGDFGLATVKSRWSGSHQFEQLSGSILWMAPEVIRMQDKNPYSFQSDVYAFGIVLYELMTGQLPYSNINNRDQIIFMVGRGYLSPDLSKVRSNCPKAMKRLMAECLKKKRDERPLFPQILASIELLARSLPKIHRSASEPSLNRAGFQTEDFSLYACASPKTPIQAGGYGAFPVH

In the case of THHVNILLFM [null-braftide], the “IC50, ELISA-based kinase assay (phosphorylation of kinase-dead MEK)” value was determined as 2.5 µM.
